Data as given in US20220348651A1 (Novartis, published 2022).
Positions count from the first letter of the chain named. Blank lines part the entries; values can stand above or below the binder they belong to.

Columns and labels:
[1] = target: recombinant human ENTPD2 extracellular domain (residues 29-462) with C-terminal Avi-His6 tag (human, UniProt Q9Y5L3 29-462, biotinylated on the AviTag in the epitope binning assay); assay: cell-based or functional assay
[2] = target: T1, human ENTPD2 expressed on cells (human, UniProt Q9Y5L3 1-495); assay: cell-based or functional assay
T1 sequence: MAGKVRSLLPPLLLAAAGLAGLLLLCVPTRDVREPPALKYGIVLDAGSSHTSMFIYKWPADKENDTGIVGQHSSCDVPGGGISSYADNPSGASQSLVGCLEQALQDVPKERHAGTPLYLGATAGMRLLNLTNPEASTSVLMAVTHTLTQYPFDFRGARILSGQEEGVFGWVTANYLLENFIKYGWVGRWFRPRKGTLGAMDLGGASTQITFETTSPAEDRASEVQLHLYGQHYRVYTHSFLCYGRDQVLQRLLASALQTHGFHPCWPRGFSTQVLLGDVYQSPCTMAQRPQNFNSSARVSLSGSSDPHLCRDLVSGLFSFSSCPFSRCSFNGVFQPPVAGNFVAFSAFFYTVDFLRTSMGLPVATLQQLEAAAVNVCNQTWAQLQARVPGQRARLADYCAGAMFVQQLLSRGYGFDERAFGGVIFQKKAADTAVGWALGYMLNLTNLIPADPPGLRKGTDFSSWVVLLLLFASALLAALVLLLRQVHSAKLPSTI

[3] = target: T2, cyno ENTPD2 expressed on NIH/3T3 cells (cynomolgus macaque, UniProt Q9Y5L3 1-495 (human entry)); assay: cell-based or functional assay
T2 chain: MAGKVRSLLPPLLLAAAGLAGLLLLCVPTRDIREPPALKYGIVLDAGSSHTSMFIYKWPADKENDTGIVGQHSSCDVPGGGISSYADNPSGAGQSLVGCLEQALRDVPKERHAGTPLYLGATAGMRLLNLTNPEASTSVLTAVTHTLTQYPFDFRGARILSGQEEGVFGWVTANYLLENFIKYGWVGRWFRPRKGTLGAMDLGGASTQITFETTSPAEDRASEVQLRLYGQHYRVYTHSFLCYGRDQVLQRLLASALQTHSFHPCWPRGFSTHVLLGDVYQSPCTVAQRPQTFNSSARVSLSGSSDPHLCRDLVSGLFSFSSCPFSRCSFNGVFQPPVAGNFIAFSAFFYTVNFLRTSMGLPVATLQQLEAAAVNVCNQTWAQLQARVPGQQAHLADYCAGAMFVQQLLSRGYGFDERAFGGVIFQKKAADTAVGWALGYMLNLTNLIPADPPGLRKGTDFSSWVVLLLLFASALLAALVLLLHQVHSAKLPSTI

[4] = target: T3, recombinant human ENTPD2 (residues 29-462, Y350A mutant) used in crystallographic studies (human, UniProt Q9Y5L3 29-462, N-linked glycosylation observed at Asn129, Asn294, Asn378 and Asn443); assay: X-ray crystal structure of the complex
T3 construct: also called hENTPD2 Y350A; human ENTPD2 (Y350A mutant) ectodomain
T3 sequence: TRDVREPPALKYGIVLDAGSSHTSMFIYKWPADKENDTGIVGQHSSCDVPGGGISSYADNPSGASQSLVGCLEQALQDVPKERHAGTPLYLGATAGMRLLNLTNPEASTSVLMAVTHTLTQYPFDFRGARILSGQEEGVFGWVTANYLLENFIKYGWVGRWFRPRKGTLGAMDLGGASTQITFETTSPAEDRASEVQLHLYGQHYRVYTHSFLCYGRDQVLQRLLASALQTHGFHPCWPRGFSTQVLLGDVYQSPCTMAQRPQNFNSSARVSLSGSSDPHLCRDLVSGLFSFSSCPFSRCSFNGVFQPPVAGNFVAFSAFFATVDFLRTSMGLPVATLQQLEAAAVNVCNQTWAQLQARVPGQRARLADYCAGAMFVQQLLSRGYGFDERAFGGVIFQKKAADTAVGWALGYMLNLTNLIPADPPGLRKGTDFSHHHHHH
Procedure: Structure determination by molecular replacement was performed using the previously determined human ENTPD2 coordinates and Fab coordinates from PDB code 3QRG.

[5] = target: T4, mouse ENTPD2 expressed on cells (mouse, UniProt O55026 1-495); assay: flow cytometry (FACS)
T4 construct: also called NIH3T3-mouse ENTPD2 engineered cell line; mouse ENTPD2-engineered 4T1 clone 45
T4 sequence: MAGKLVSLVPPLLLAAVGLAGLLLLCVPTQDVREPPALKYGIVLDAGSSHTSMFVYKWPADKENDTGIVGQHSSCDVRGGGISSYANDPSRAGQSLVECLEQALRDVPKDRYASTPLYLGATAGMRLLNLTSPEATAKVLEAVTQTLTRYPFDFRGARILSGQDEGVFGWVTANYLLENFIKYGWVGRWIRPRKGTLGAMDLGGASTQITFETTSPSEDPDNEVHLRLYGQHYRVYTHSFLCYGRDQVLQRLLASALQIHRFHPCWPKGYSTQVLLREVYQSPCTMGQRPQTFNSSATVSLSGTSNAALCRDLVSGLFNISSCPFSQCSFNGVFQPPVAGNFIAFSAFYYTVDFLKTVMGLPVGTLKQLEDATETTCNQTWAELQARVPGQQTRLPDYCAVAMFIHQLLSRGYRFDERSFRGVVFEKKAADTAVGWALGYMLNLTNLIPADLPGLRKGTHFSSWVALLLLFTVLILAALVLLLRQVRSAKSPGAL

[6] = target: T4, mouse ENTPD2 expressed on cells; assay: cell-based or functional assay

B2: ANTI-HUMAN ENTPD2 FAB23 (Fab, V domains shown)
VH: EVQLQQFGAELVKPGASVKISCKASGYTFTDYNMDWVKQSHGKSLEWIGDINPKYDISTYNQQFKGKATLTVDKSSSTAYMELRSLTSEDTAVYYCARRGFFLYYGINYYYFDVWGAGTTVTVSS
VL: QIVLTQSPAIMSASLGEEITLTCSASSSVSYIHWYQQKSGTSPTLLIYSTSNLASGVPSRFSGSGSGTFYSLTISSVEAEDAADYYCHQWSSYPWTFGGGTKLEIKR
modifications: N-terminal residue observed and modeled as pyroglutamate in the crystal structure
notes: Fab with the variable regions of mAb17; also called anti-hENTPD2 FAb23; anti-human ENTPD2 MAB17 Fab
buried solvent-accessible surface [4]: ~17500 Å2

B6: ANTI-mouse ENTPD2 MAB13 (antibody, mouse IgG2a, kappa, V domains shown)
VH: QVQLVQSGAELKQPGQSVKISCKASGYTFTHYGMNWVKQAPGQGLKWMGWINTDTGNPTYADDFKGRFVFSLDTSVSTAYLQISNLKNEDTATYYCVRYGTLYSGYGFFFDSWGQGTLVTVSS
VL: DIMMTQSPSSLSVSAGEKATITCKSSQSLFNSNTNKNYLNWYLQKPGQSPKLLFYYASTRHTGVPDRFIGSGSGTDFTLTITSVQDEDLADYYCQQWYSYPWTFGPGTKLEIKR
notes: mouse ENTPD2 selective antibody; also called Anti-ENTPD2 mAb13
EC50 [5]: 3 to 4 nM
ENTPD2 Functional Assay IC50 (mouse ENTPD2 NIH/3T3 cells) [6]: 2.8 nM

B9: ANTI-HUMAN ENTPD2 MAB11 (antibody, human IgG1, kappa, V domains shown)
VH: EVQLLESGGGLVQSGGSLRLSCAASGFTFSSYAMSWVRQAPGKGLEWVSVISGSGGSTYYADSVKGRFTISRDNSKNTLYLQMNSLRAEDTAVYYCARGDDYGDDYYYYGMDVWGQGTTVTVSS
VL: not shown
% inhibition, Human ENTPD2 NIH/3T3 Assay [2]: 55%
IC50, Human ENTPD2 NIH/3T3 Assay [2]: 1.5 nM

B10: ANTI-HUMAN ENTPD2 MAB12 (antibody, human IgG1, kappa, V domains shown)
VH: EVLLVESGGGLVQPGGSLRLSCAASGFTFNSCSMNWVRQAPGKGLEWVSYISSSSSTIYYADSVKGRFTISRDNAKNSLYLQMNSLKDEDTAVYYCARDQGNWNYDDYYNGLDVWGQGTTVTVSS
VL: not shown
% inhibition, Human ENTPD2 NIH/3T3 Assay [2]: 68%
IC50, Human ENTPD2 NIH/3T3 Assay [2]: 26.6 nM

B11: ANTI-HUMAN ENTPD2 MAB16 (antibody, human IgG1, kappa, V domains shown)
VH: DIQLQESGPGLVKPSQSLSLTCSVTGYSITSGYYWNWIRQFPGNKLEWMGYISYDGDNNYNPSLKNRISITRDTSKNQFFLKLSSVTTEDTATYYCAGGYYRYGLSYYYVMDYWGQGTSVTVSS
VL: DTVLTQSPASLAVSLGQRATISCKASQSVDYDGNSYMNWYQQKPGQPPKLLIYAASNLESGIPARFSGSGSGTDFTLNIHPVEEEDAATYYCQQSNEDPPTFGGGTKLEIKR
IC50, ENTPD2 Biochemical Assay at 1 uM ATP [1]: 77.3 nM
% inhibition, Human ENTPD2 NIH/3T3 Assay [2]: 30%
IC50, Human ENTPD2 NIH/3T3 Assay [2]: > 133 nM
% inhibition, Cyno ENTPD2 NIH/3T3 Assay [3]: 5%
IC50, Cyno ENTPD2 NIH/3T3 Assay [3]: > 133 nM

B13: ANTI-HUMAN ENTPD2 FAB22 (Fab, V domains shown)
VH: B11 VH with D1E, I2V, Q3K, Q5E, E6Q, G50S, S124A
VL: B11 VL with T2I, V3K, L4M, I110L
notes: Fab with the CDRs of mAb16; human CH1 and kappa constant regions; also called anti-hENTPD2 FAb22
buried solvent-accessible surface [4]: ~16700 Å2

The next lines start with the values.

IC50, ENTPD2 Biochemical Assay at 1 uM ATP [1]: 0.27 nM
% inhibition, Human ENTPD2 NIH/3T3 Assay [2]: 98%
% inhibition, RKO Assay [2]: 96%
IC50, Human ENTPD2 NIH/3T3 Assay [2]: 0.6 nM
IC50, RKO Assay [2]: 0.5 nM
% inhibition, Cyno ENTPD2 NIH/3T3 Assay [3]: 91%
IC50, Cyno ENTPD2 NIH/3T3 Assay [3]: 1 nM
B1: ANTI-HUMAN ENTPD2 MAB17 (antibody, human IgG1, kappa, V domains shown)
VH: B2 VH
VL: B2 VL

IC50, ENTPD2 Biochemical Assay at 1 uM ATP [1]: 4.09 nM
B3: ANTI-HUMAN ENTPD2 MAB19 (antibody, human IgG1, kappa, V domains shown)
VH: B2 VH with A16T, K54N, S58T, Q63R, L103P, I107N, N108S
VL: B2 VL with A9T, I32M, T44K, S92N

IC50, ENTPD2 Biochemical Assay at 1 uM ATP [1]: 0.87 nM
B4: ANTI-HUMAN ENTPD2 MAB21 (antibody, human IgG1, kappa, V domains shown)
VH: EVQLQQSGPELVKPGASVKISCKTSGYTFTEYTMHWVKQSHGKSLEWIGGINPNNGITTYNQKFKGKATLTVDKSSSTAYMDLRSLTSEGSAVYYCARRGFPIYYYGTSLYYFDYWGQGTTLTVSS
VL: B2 VL with I32M, K38R, T44K, S49T

IC50, ENTPD2 Biochemical Assay at 1 uM ATP [1]: 17.5 nM
B5: ANTI-HUMAN ENTPD2 MAB20 (antibody, human IgG1, kappa, V domains shown)
VH: B2 VH with K54N, S58T, T59S, Q63K, I107S, N108S
VL: B2 VL with I32M, T44K

ENTPD2 Functional Assay IC50 (mouse ENTPD2 NIH/3T3 cells) [6]: 4.6 nM
B7: ANTI-mouse ENTPD2 MAB14 (antibody, mouse IgG2a, kappa, V domains shown)
VH: B6 VH with T30W
VL: B6 VL

ENTPD2 Functional Assay IC50 (mouse ENTPD2 NIH/3T3 cells) [6]: 5.9 nM
B8: ANTI-mouse ENTPD2 MAB15 (antibody, mouse IgG2a, kappa, V domains shown)
VH: B6 VH with T30H
VL: B6 VL

% inhibition, Human ENTPD2 NIH/3T3 Assay [2]: 88%
IC50, Human ENTPD2 NIH/3T3 Assay [2]: 0.4 nM
% inhibition, Cyno ENTPD2 NIH/3T3 Assay [3]: 68%
IC50, Cyno ENTPD2 NIH/3T3 Assay [3]: 20 nM
B12: ANTI-HUMAN ENTPD2 MAB18 (antibody, human IgG1, kappa, V domains shown)
VH: DIQLQESGPGLVKPSQSLSLTCSVTGYSITSGYYWNWIRQFPGNKLEWMGYISYDGDNNYNPSLKNRISITRDTSKNQFFLKLSSVTTEDTATYYCAGGYYRYGLGSYSGSYYYVMDYWGQGTSVTVSS
VL: B11 VL
